B1: BAR/IMD domain-containing adapter protein 2 (Homo sapiens), Q9UQB8-4 (parent)
chain: MSLSRSEEMHRLTENVYKTIMEQFNPSLRNFIAMGKNYEKALAGVTYAAKGYFDALVKMGELASESQGSKELGDVLFQMAEVHRQIQNQLEEMLKSFHNELLTQLEQKVELDSRYLSAALKKYQTEQRSKGDALDKCQAELKKLRKKSQGSKNPQKYSDKELQYIDAISNKQGELENYVSDGYKTALTEERRRFCFLVEKQCAVAKNSAAYHSKGKELLAQKLPLWQQACADPSKIPERAVQLMQQVASNGATLPSALSASKSNLVISDPIPGAKPLPVPPELAPFVGRMSAQESTPIMNGVTGPDGEDYSPWADRKAAQPKSLSPPQSQSKLSDSYSNTLPVRKSVTPKNSYATTENKTLPRSSSMAAGLERNGRMRVKAIFSHAAGDNSTLLSFKEGDLITLLVPEARDGWHYGESEKTKMRGWFPFSYTRVLDSDGSDRLHMSLQQGKSSSTGNLLDKDDLAIPPPDYGAASRAFPAQTASGFKQRPYSVAVPAFSQGLDDYGARSMSSGSGTLVSTV

Variants of: B1
Conditions: with vasp_human VASP

| effect of a mutation on the interaction | Variant |
| --- | --- |
| disrupting interaction | MSLSRSEEMHRLTENVYKTIMEQFNPSLRNFIAMGKNYEKALAGVTYAAKGYFDALVKMGELASESQGSKELGDVLFQMAEVHRQIQNQLEEMLKSFHNELLTQLEQKVELDSRYLSAALKKYQTEQRSKGDALDKCQAELKKLRKKSQGSKNPQKYSDKELQYIDAISNKQGELENYVSDGYKTALTEERRRFCFLVEKQCAVAKNSAAYHSKGKELLAQKLPLWQQACADPSKIPERAVQLMQQVASNGATLPSALSASKSNLVISDPIPGAKPLPVPPELAPFVGRMSAQESTPIMNGVTGPDGEDYSPWADRKAAQPKSLSPPQSQSKLSDSYSNTLPVRKSVTPKNSYATTENKTLPRSSSMAAGLERNGRMRVKAIFSHAAGDNSTLLSFKEGDLITLLVPEARDGGHYGESEKTKMRGWFPFSYTRVLDSDGSDRLHMSLQQGKSSSTGNLLDKDDLAIPPPDYGAASRAFPAQTASGFKQRPYSVAVPAFSQGLDDYGARSMSSGSGTLVSTV [W413G] |
